Target: T1, Recombinant human HTRA1 (R&D Systems, 2916-SE) (human, UniProt Q92743 23-480, RED-NHS dye label (Monolith NT Protein Labeling Kit RED-NHS), molar dye to protein ratio 5:1)
T1 construct: Serine protease HTRA1, human, recombinant, R&D Systems catalogue 2916-SE; In the functional rows the HTRA1 was full-length HTRA1 (pcDNA3) in medium of stably transfected HEK293 cells, not this bought protein; also called labeled HTRA1; source: bought: R&D Systems, 2916-SE
Assay: MST; labeled HTRA1 constant at 65 nM, unlabeled MIF titrated 2.28 nM to 1 µM; 50 mM Tris, 0.05% Tween-20, pH 8.0; 20 min at RT, 25 °C; Monolith NT.115, 40% LED, 80% MST power; Thermophoresis + T-jump signal
Details: both partners purified

T1 sequence (Q92743 23-480): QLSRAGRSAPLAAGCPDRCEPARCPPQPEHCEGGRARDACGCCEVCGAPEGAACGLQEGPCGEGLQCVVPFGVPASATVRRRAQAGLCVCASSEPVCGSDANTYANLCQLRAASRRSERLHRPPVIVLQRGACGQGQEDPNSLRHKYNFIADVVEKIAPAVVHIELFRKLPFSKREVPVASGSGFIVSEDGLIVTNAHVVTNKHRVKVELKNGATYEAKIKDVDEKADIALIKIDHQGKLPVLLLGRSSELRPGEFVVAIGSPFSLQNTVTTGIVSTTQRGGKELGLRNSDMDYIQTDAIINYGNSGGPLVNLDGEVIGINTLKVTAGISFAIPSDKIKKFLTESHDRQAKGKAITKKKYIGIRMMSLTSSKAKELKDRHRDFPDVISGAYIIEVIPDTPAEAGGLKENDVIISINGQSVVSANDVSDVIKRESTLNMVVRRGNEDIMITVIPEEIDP

Kd: 147 nM
B1: MIF (Pepro-Tech, 300-69) (natural protein, UniProt P14174 1-115, looked up)
chain: MPMFIVNTNVPRASVPDGFLSELTQQLAQATGKPPQYIAVHVVPDQLMAFGGSSEPCALCSLHSIGKIGGAQNRSYSKLLCGLLAERLRISPDRVYINYYDMNAANVGWNNSTFA
notes: also called unlabeled MIF; non-labeled MIF; source: bought: Pepro-Tech, 300-69
